Numbering of substitutions follows the chain as printed.

These results are taken from patent US20260116966A1 (KEYMED BIOSCIENCES CHENGDU, published 2026).

Assay [1] addresses T1, human GPRC5D (human, UniProt Q9NZD1 1-345).
T1 construct: Full length, on stably transfected cells (HEK293-hGPRC5D, CHO-hGPRC5D); Also used here for the endogenous GPRC5D of the GPRC5D+ myeloma lines MM.1R, MM.1S and NCI-H929; also called hGPRC5D; G-protein-coupled receptor family C group 5 member D
Put plainly: flow cytometry, HEK293-hGPRC5D cells. A general note: Flow cytometry measures light scatter and fluorescence of single cells or particles in a stream.
Description: Cell suspensions of HEK293-hGPRC5D and HEK293-hBCMA stably transfected cells in logarithmic growth phase were adjusted to 5×10⁵ cells/ml. Then, 100 μl/well of the cell suspension was added to a 96-well U-shaped plate, and centrifuged at 300 g for 5 min. The supernatant was discarded. 100 μL per well of serially diluted antibody was added, and incubated at 4° C. for 60 min. The secondary antibody 50 μL/well of Alexa Fluro647 labeled goat anti-human IgG Fc (1:300 dilution) was added, and incubated on ice for 20 min. After washing once, 50 μL/well of PI solution was added, incubated for 5 min, and detected by flow cytometry.

Assay [2] has as its target T1, human GPRC5D. The experiment in a line: cell-based or functional assay.
Assay [3] addresses T2, Cynomolgus GPRC5D (Cynomolgus, UniProt Q9NZD1 1-343 (human entry)).
T2 construct: Full length, on stably transfected cells (HEK293-cyGPRC5D, CHO-cyGPRC5D); also called cyGPRC5D
T2 chain: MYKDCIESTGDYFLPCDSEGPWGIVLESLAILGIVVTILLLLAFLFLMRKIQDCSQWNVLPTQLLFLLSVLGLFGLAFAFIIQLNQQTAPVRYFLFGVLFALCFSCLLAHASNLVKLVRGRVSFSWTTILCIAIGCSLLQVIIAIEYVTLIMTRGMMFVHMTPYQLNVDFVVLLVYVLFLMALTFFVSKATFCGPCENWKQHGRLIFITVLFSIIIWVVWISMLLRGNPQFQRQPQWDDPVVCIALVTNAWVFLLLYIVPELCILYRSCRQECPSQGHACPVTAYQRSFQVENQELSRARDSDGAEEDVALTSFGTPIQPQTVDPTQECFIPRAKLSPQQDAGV
Put plainly: flow cytometry, HEK293-cyGPRC5D cells against HEK293-hGPRC5D cells.
Description: (§1) HEK293-hGPRC5D and HEK293-cyGPRC5D stably transfected cells in logarithmic growth phase were respectively adjusted to a cell density of 5×10⁵ cells/mL. Then, 100 μl/well of the cell suspension was added to a 96-well U-shaped plate, and centrifuged at 300 g for 5 min. The supernatant was discarded. […] The secondary antibody 50 μL/well of Alexa Fluro647 labeled goat anti-human IgG Fe (1:300 dilution) was added, and incubated on ice for 20 min. After washing once, 50 μL/well of PI solution (1:300) was added, incubated for 5 min, and detected by flow cytometry.

The target in assay [4] is T1, human GPRC5D. The experiment in a line: flow cytometry, HEK293-hGPRC5D cells. The source holds these as a separate data set.
Description: as §1
The target of assay [5] is T3, CD3 receptor on the surface of Jurkat cells (human, UniProt P07766 23-207).
T3 construct: whole, on cells; Whole CD3/TCR complex on Jurkat cells; also called Jurkat T
The experiment in a line: flow cytometry, Jurkat cells.
Description: The cell concentration was adjusted with 4% calf serum to 5×10⁵ cells/mL. 100 μL per well was added to a 96-well U-shaped plate, and centrifuged at 300 g. The supernatant was removed. […] The secondary antibody 50 μL/well of Alexa Fluro647 labeled goat anti-human IgG Fc (1:300 dilution) was added, and incubated on ice for 20 min. After washing once, 50 μL/well of PI was added, incubated for 5 min, and detected by flow cytometry.

Assay [6] deals with T1, human GPRC5D. Put plainly: flow cytometry, MM.1R cells.
Description: The cell suspension of MM.1R cells in logarithmic growth phase was adjusted to a concentration of 5×10⁵ cells/mL, and 100 μL per well was added to a 96-well U-shaped plate, and centrifuged at 300 g for 5 min. The supernatant was discarded. […] The primary antibody was washed away, and 50 μL/well Alexa Fluro647 labeled goat anti-human IgG FC (1:300 dilution) was added, and incubated on ice for 20 min. After washing once, 50 μL/well of PI was added, incubated for 5 min, and detected by flow cytometry.
Assay [7] deals with T1, human GPRC5D. Put plainly: cell-based or functional assay. The source holds these as a separate data set.
Assay [8] deals with T3, CD3 receptor on the surface of Jurkat …. The experiment in a line: cell-based or functional assay.
Assay [9] concerns the target T2, Cynomolgus GPRC5D. Put plainly: flow cytometry, HEK293-cyGPRC5D cells.
Description: as §1
Assay [10] deals with T4, human BCMA on HEK293-hBCMA cells (human, UniProt Q02223 1-184).
T4 sequence (looked up): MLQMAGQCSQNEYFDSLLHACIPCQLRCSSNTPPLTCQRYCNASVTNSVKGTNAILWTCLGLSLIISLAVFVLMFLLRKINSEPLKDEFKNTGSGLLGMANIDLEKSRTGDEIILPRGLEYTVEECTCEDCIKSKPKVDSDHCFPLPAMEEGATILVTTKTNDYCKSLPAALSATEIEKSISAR
Put plainly: cell-based or functional assay.

The target in assay [11] is T5, biotinylated CD3 recombinant antigen (CD3εγ) (Homo sapiens (Human), UniProt P07766 23-126; P09693 23-116, Biotinylated; site and chemistry not stated. The letters do not carry the biotin.).
T5 construct: also called CD3e antigen; copies: 1 + 1
The experiment in a line: BLI, biotinylated antigen on SA probe, antibody as analyte. In general terms: BLI is a label-free optical method that tracks binding on a fibre tip over time.

Assay [12] deals with T6, biotinylated BCMA recombinant antigen (Homo sapiens (Human), UniProt Q02223 1-54, Biotinylated; site and chemistry not stated. The letters do not carry the biotin.).
T6 sequence: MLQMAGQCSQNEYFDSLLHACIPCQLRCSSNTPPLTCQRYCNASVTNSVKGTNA
Described as above.

For assay [13], the target named is T4, human BCMA on HEK293-hBCMA cells. The experiment in a line: flow cytometry, HEK293-hBCMA cells.
In assay [14] the target is T3, CD3 receptor on the surface of Jurkat …. Put plainly: flow cytometry on Jurkat cells.
Description: Jurkat cells in logarithmic growth phase were added with 200 μg/mL mouse IgG, and allowed to stand in an ice bath for 30 min. The cells were adjusted with 4% calf serum to 5×10⁵ cells/mL. 100 μL per well was added to a 96-well U-shaped plate, and centrifuged at 300 g. The supernatant was removed. 100 μL per well of serially diluted antibody was added, and incubated at 4° C. for 60 min. The secondary antibody 50 μL/well of Alexa Fluro647 labeled goat anti-human IgG Fc (1:300 dilution) was added, and incubated on ice for 20 min. After washing once, 50 μL/well of PI was added, incubated for 5 min, and detected by flow cytometry.

T1 sequence (Q9NZD1 whole entry): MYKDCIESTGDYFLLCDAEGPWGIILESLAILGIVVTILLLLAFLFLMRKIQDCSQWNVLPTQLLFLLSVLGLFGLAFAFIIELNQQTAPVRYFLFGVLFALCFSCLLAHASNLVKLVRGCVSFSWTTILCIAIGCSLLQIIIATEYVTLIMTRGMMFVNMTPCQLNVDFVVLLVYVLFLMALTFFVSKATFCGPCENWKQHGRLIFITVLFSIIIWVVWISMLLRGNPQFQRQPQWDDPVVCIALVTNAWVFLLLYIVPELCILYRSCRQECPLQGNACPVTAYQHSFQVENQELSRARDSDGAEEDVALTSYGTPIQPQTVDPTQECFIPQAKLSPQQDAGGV
T3 sequence (P07766 23-207): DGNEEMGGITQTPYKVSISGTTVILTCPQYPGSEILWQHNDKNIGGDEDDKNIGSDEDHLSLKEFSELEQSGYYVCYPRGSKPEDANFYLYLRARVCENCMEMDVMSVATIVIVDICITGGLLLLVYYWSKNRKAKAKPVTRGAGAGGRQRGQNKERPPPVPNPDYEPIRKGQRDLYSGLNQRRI
T5 sequence (P07766 23-126 limits assumed, chain 1 of 2): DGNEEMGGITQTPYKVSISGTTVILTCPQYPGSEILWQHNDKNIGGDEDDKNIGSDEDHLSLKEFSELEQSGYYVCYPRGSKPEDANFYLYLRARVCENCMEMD
T5 sequence (P09693 23-116 limits assumed, chain 2 of 2): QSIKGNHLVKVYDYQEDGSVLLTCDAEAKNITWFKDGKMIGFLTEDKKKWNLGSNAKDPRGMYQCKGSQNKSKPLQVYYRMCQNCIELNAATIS

B1: 2F1 × CD3 H4K5 GPRC5D×CD3 κλ bispecific antibody variant (bispecific antibody, human IgG4 S228P, kappa, lambda)
heavy 1: QVQLVQSGAEVKKPGSSVKVSCKASGYSFTGYTMNWVREAPGQGLEWMGLINPYNGGTRYNQKFQGRVTITADESTSTAYMELSSLRSEDTAVYYCARWALRYGMDYWGQGTLVTVSSASTKGPSVFPLAPCSRSTSESTAALGCLVKDYFPEPVTVSWNSGALTSGVHTFPAVLQSSGLYSLSSVVTVPSSSLGTKTYTCNVDHKPSNTKVDKRVESKYGPPCPPCPAPEFEGGPSVFLFPPKPKDTLMISRTPEVTCVVVDVSQEDPEVQFNWYVDGVEVHNAKTKPREEQFNSTYRVVSVLTVLHQDWLNGKEYKCKVSNKGLASSIEKTISKAKGQPREPQVCTLPPSQEEMTKNQVSLSCAVKGFYPSDIAVEWESNGQPENNYKTTPPVLDSDGSFFLVSKLTVDKSRWQEGNVFSCSVMHEALHNHYTQKSLSLSLGK
light 1: DIQMTQSPSSLSASVGDRVTITCQASQNVGTNVAWYQKKPGQAPKALIYSASYLNSGVPSRFSGSGSGTDFTFTISSLQPEDIATYFCQQYNSYLLTFGGGTKVEIKRTVAAPSVFIFPPSDEQLKSGTASVVCLLNNFYPREAKVQWKVDNALQSGNSQESVTEQDSKDSTYSLSSTLTLSKADYEKHKVYACEVTHQGLSSPVTKSFNRGEC
heavy 2: EVQLVESGGGLVQPGGSLRLSCAASGFTFNTYAMNWVRKAPGKGLEWVGRIRSKYNNYATYYADSVKDRFTISRDDSKNSLYLQMNSLKTEDTAVYYCVRHGNFGNSYVSWFAYWGQGTLVTVSSASTKGPSVFPLAPCSRSTSESTAALGCLVKDYFPEPVTVSWNSGALTSGVHTFPAVLQSSGLYSLSSVVTVPSSSLGTKTYTCNVDHKPSNTKVDKRVESKYGPPCPPCPAPEFEGGPSVFLFPPKPKDTLMISRTPEVTCVVVDVSQEDPEVQFNWYVDGVEVHNAKTKPREEQFNSTYRVVSVLTVLHQDWLNGKEYKCKVSNKGLASSIEKTISKAKGQPREPQVYTLPPCQEEMTKNQVSLWCLVKGFYPSDIAVEWESNGQPENNYKTTPPVLDSDGSFFLYSKLTVDKSRWQEGNVFSCSVMHEALHNHYTQKSLSLSLGK
light 2: QAVVTQEPSLTVSPGGTVTLTCRSSTGAVTTSNYANWVQEKPGQAPRGLIGGTNKRAPWTPARFSGSLLGGKAALTITGAQAEDEAEYYCVLWYSNLWVFGGGTKLTVLGQPKAAPSVTLFPPSSEELQANKATLVCLISDFYPGAVTVAWKADSSPVKAGVETTTPSKQSNNKYAASSYLSLTPEQWKSHRSYSCQVTHEGSTVEKTVAPTECS
notes: also called h2F1 H4K5
Usually EC50 stands for the concentration at which the effect is half-maximal. Read a high EC50 as a need for much substance. Regarding B1, the concentration for a half-maximal effect (EC50) in the assay with human GPRC5D [1] stood at 8.4 nM; in the assay with human GPRC5D [4], 2.8 nM; in [5], 1.9 nM; in the assay with human GPRC5D [6], 15.7 nM; with Cynomolgus GPRC5D [9], 12.8 nM. Besides, in the assay with human GPRC5D [2], the “TDCC EC50 (nM), HEK293-hGPRC5D” value came to 0.014 nM. Besides, the “TDCC EC50 (nM), MM.1S” value with human GPRC5D [2] is 0.017 nM. Further, the “TDCC EC50 (nM), NCI-H929” value with human GPRC5D [2] is 0.036 nM. Besides, the “fold difference of affinity, Cynomolgus GPRC5D against human GPRC5D” value with Cynomolgus GPRC5D [3] was < 5 fold. Also, in the assay with human GPRC5D [7], the “TDCC, EC50 (nM), MM.1R” value is 0.008 nM. In addition, in [8], the “Jurkat-NFAT-luc, EC50” value was 0.662 nM.

B2: BCMA × CD3 κλ005 bispecific antibody (bispecific antibody, human IgG4 S228P, kappa, lambda)
heavy 1: QVQLVQSGSELKKPGASVKVSCKASGYIFTNFGMNWVREAPGQGLEWMGWINTYTGEQIYADGFTGRFVFSLDTSVSTAYLQISSLKAEDTAVYFCARGEIYYGYDVGFVYWGQGTLVTVSS
light 1: DIVLTQSPASLAVSPGQRATITCRASKSVSTSGYSYMHWYQKKPGQPPKLLIYLASNLESGVPARFSGSGSGTDFTLTINPVEAEDTANYYCQHSRELPWTFGQGTKVEIKRTVAAPSVFIFPPSDEQLKSGTASVVCLLNNFYPREAKVQWKVDNALQSGNSQESVTEQDSKDSTYSLSSTLTLSKADYEKHKVYACEVTHQGLSSPVTKSFNRGEC
heavy 2: B1 heavy 2
light 2: B1 light 2
notes: they are not tied to the name κλ005 in one sentence; also called BCMA×CD3 bispecific antibody
The term Kd denotes the constant that tells how readily two partners part at equilibrium. As for B2, the “TDCC EC50 (nM), HEK293-hBCMA” value in assay [10] was 0.015 nM. Also, the Kd in [11] worked out at 45.4 nM; in [12], 1.1 nM. Besides, in [13], the EC50 was found to be 1.9 nM.

B3: GPRC5D × BCMA × CD3 triTCE-v2 trispecific antibody (other)
light 1: B2 light 1
heavy 1: QVQLVQSGAEVKKPGSSVKVSCKASGYSFTGYTMNWVRQAPGQCLEWMGLINPYNGGTRYNQKFQGRVTITADESTSTAYMELSSLRSEDTAVYYCARWALRYGMDYWGQGTLVTVSSGGGGSGGGGSGGGGSDIQMTQSPSSLSASVGDRVTITCQASQNVGTNVAWYQQKPGQAPKALIYSASYLNSGVPSRFSGSGSGTDFTFTISSLQPEDIATYFCQQYNSYLLTFGCGTKVEIKGGGGSGGGGSGGGGSQVQLVQSGSELKKPGASVKVSCKASGYIFTNFGMNWVREAPGQGLEWMGWINTYTGEQIYADGFTGRFVFSLDTSVSTAYLQISSLKAEDTAVYFCARGEIYYGYDVGFVYWGQGTLVTVSSASTKGPSVFPLAPCSRSTSESTAALGCLVKDYFPEPVTVSWNSGALTSGVHTFPAVLQSSGLYSLSSVVTVPSSSLGTKTYTCNVDHKPSNTKVDKRVESKYGPPCPPCPAPEFEGGPSVFLFPPKPKDTLMISRTPEVTCVVVDVSQEDPEVQFNWYVDGVEVHNAKTKPREEQFNSTYRVVSVLTVLHQDWLNGKEYKCKVSNKGLASSIEKTISKAKGQPREPQVCTLPPSQEEMTKNQVSLSCAVKGFYPSDIAVEWESNGQPENNYKTTPPVLDSDGSFFLVSKLTVDKSRWQEGNVFSCSVMHEALHNHYTQKSLSLSLGK
light 2: B1 light 2
heavy 2: B1 heavy 2
notes: Trispecific antibody: GPRC5D scFv fused to the N-terminus of the heavy chain of the BCMA arm
As to B3, the midpoint of the response with human GPRC5D [1], the EC50, lay at 7.9 nM. Further, the “TDCC EC50 (nM), HEK293-hGPRC5D” value with human GPRC5D [2] was 0.045 nM. Moreover, the binding result in assay [14] is given as “binds”.

B4: GPRC5D × BCMA × CD3 triTCE-v1 trispecific antibody (other)
light 1: B2 light 1
heavy 1: DIQMTQSPSSLSASVGDRVTITCQASQNVGTNVAWYQQKPGQAPKALIYSASYLNSGVPSRFSGSGSGTDFTFTISSLQPEDIATYFCQQYNSYLLTFGCGTKVEIKGGGGSGGGGSGGGGSQVQLVQSGAEVKKPGSSVKVSCKASGYSFTGYTMNWVRQAPGQCLEWMGLINPYNGGTRYNQKFQGRVTITADESTSTAYMELSSLRSEDTAVYYCARWALRYGMDYWGQGTLVTVSSGGGGSGGGGSGGGGSQVQLVQSGSELKKPGASVKVSCKASGYIFTNFGMNWVREAPGQGLEWMGWINTYTGEQIYADGFTGRFVFSLDTSVSTAYLQISSLKAEDTAVYFCARGEIYYGYDVGFVYWGQGTLVTVSSASTKGPSVFPLAPCSRSTSESTAALGCLVKDYFPEPVTVSWNSGALTSGVHTFPAVLQSSGLYSLSSVVTVPSSSLGTKTYTCNVDHKPSNTKVDKRVESKYGPPCPPCPAPEFEGGPSVFLFPPKPKDTLMISRTPEVTCVVVDVSQEDPEVQFNWYVDGVEVHNAKTKPREEQFNSTYRVVSVLTVLHQDWLNGKEYKCKVSNKGLASSIEKTISKAKGQPREPQVCTLPPSQEEMTKNQVSLSCAVKGFYPSDIAVEWESNGQPENNYKTTPPVLDSDGSFFLVSKLTVDKSRWQEGNVFSCSVMHEALHNHYTQKSLSLSLGK
light 2: B1 light 2
heavy 2: B1 heavy 2
notes: as for B3
For B4, in the assay with human GPRC5D [1], the EC50 was 5.7 nM. The “TDCC EC50 (nM), HEK293-hGPRC5D” value in the assay with human GPRC5D [2] was determined as 0.074 nM. Besides, the binding result in assay [14] is on record as “binds”.

B5: 2F1 × CD3 H4K7 GPRC5D×CD3 κλ bispecific antibody variant (bispecific antibody, human IgG4 S228P, kappa, lambda)
heavy 1: B1 heavy 1
light 1: B1 light 1 with L54R
heavy 2: B1 heavy 2
light 2: B1 light 2
notes: also called h2F1 H4K7
As to B5, the “fold difference of affinity, Cynomolgus GPRC5D against human GPRC5D” value with Cynomolgus GPRC5D [3] was < 5 fold. For the same molecule, the EC50 with human GPRC5D [4] is 2.3 nM; in assay [5], 7.2 nM; in the assay with human GPRC5D [6], 10.2 nM; in the assay with Cynomolgus GPRC5D [9] it was 6.6 nM. Moreover, in the assay with human GPRC5D [7], the “TDCC, EC50 (nM), MM.1R” value came out at 0.009 nM. For the same molecule, in assay [8], the “Jurkat-NFAT-luc, EC50” value amounted to 0.774 nM.
